Source: US20240182908, “DEOXYRIBONUCLEOSIDE OR DEOXYRIBONUCLEOTIDE HAVING NOVEL ARTIFICIAL BASE APPLICABLE TO SCREENING FOR DNA APTAMER, AND NUCLEIC ACID CONTAINING THE SAME” (TAGCYX BIOTECHNOLOGIES INC., published 2024)
Read-outs that look alike come from different tables or passages of the source.

What was measured:
VEGF165 [1] = target: T1, VEGF165 (UniProt P15692-4 P15692-4:27-191); experiment: EMSA; PBS + 0.005% NP-40, 37 C; shift band lost; settings: chain copies: 2
Method: (§1) The purified oligomer of the candidate sequence (T-00199, see below for the sequence in Table 4) was added into the binding solution to adjust to 0.2 μM, and a folding operation (at 95° C. for 5 minutes→(−0.1° C./sec)→at 25° C.) was performed to form tertiary structures. Thereafter, VEGF165 was diluted with the binding solution to 0.2 μM and mixed with the folded DNA solution, and the resultant was incubated at 37° C. for 30 minutes. The sample incubated was subjected to electrophoresis with 10% unmodified polyacrylamide gel to analyze on whether a band indicative of the DNA-protein complex could be detected. DNA was stained with SYBR Gold, and detected with blue light at 470 nm.
Subsequently, to determine whether the novel artificial base dDsbn is involved in binding to VEGF165, evaluation was performed with oligomers obtained by substituting dDsbn with dDs or dA (dDs-substituted form: T-00200, dA-substituted form: T-00201, see below for the sequences in Table 4). The oligomers were synthesized with a chemical synthesis method, and purified with an OPC (cartridge). For EMSA, a folding operation and reaction were performed as described above, and analysis was performed with unmodified polyacrylamide (in FIG. 2, dDs: two lanes in the center, dA: two lanes in the right).

VEGF165 [2] = target: T1, VEGF165; experiment: EMSA; PBS + 0.005% NP-40, 37 C; shift band lost; settings: chain copies: 2; remark: listed apart in the source
Method: (§2) Analysis was performed by EMSA on whether the most concentrated candidate sequence binds to the target protein. First, an oligomer corresponding to the candidate sequence (T-00244, see below for the sequence in Table 8) was synthesized with a chemical synthesis method, and purified with an OPC (cartridge). The purified oligomer of the candidate sequence was added into the binding solution to adjust to 0.2 μM, and a folding operation (at 95° C., for 5 minutes→(−0.1° C./sec)→at 25° C.) was performed to form tertiary structures. Thereafter, VEGF165 was diluted with the binding solution to 0.2 μM and mixed with the folded DNA solution, and the resultant was incubated at 37° C. for 30 minutes. The sample incubated was subjected to electrophoresis with 8% unmodified polyacrylamide gel to analyze on whether a band indicative of the DNA-protein complex could be detected. DNA was stained with SYBR Gold, and detected with blue light at 470 nm.
(§3) Subsequently, to determine whether the novel artificial base dDscp is involved in binding to VEGF165, evaluation was performed with oligomers obtained by substituting dDscp with dDs or dA (dDs-substituted form: T-00245, dA-substituted form: T-00246, see below for the sequences in Table 8). The oligomers were synthesized with a chemical synthesis method, and purified with an OPC (cartridge). […]

[3] = target: T2, sIL-6R (soluble interleukin-6 receptor) (UniProt P08887 P08887:20-355); experiment: EMSA; PBS + 0.005% NP-40, room temperature; shift band lost
T2 sequence (P08887 20-355, one chain of several): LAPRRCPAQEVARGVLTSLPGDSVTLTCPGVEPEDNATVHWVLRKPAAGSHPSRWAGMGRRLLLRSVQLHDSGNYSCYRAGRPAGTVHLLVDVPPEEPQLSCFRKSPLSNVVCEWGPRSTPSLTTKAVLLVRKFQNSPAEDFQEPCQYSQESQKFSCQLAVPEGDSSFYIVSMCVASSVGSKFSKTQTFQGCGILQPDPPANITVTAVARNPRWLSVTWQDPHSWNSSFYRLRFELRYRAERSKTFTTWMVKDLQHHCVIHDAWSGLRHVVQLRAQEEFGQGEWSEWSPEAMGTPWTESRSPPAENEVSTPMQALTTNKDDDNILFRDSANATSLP
Method: as §2, with “candidate sequence (T-00247, see below” for “candidate sequence (T-00244, see below”, “in Table 9) was synthesized” for “in Table 8) was synthesized”, “structures. Thereafter, sIL-6R was diluted” for “structures. Thereafter, VEGF165 was diluted”, “solution to 0.6 μM and” for “solution to 0.2 μM and”, “incubated at room temperature for 30” for “incubated at 37° C. for 30”
as §3, with “sIL-6R,” for “VEGF165,”, “T-00248,” for “T-00245,”, “T-00249,” for “T-00246,”, “9).” for “8).”

[4] = target: T2, sIL-6R (soluble interleukin-6 receptor); experiment: as above; remark: listed apart in the source
Method: as §1, with “sequence” for “sequence (T-00199, see below for the sequence in Table 4)”, “sIL-6R” for “VEGF165”, “room temperature” for “37° C.”, “8%” for “10%”, “nm (two lanes in the left in FIG. 4).” for “nm.”
Subsequently, to determine whether the novel artificial base dDsbn is involved in binding to sIL-6R, evaluation was performed with oligomers obtained by substituting dDsbn with dDs or dA (dDs-substituted form: T-00203, dA-substituted form: T-00204, see below for the sequences in Table 5). The oligomers were synthesized with a chemical synthesis method, and purified with an OPC (cartridge). For EMSA, a folding operation, reaction, and analysis with unmodified polyacrylamide were performed as described above (FIG. 4).

T1 sequence (P15692 other isoform, or with tags, fused parts or gaps): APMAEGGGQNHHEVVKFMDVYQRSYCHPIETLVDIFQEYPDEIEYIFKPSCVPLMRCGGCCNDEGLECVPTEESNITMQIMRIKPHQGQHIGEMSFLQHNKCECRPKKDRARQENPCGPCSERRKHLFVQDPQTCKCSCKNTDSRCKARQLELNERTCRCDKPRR

B1: T-00201 (ssDNA)
DNA: CTCCATTGACTCGGCTTAAACTCCCGTCAGTTATGAATAGGTACGCATGCGGAGTTCGCTACCCCGCCATGGTCATATTGGGGTGCTCCTTGGCT
B1: no binding (VEGF165 [1]).

B2: T-00246 (ssDNA)
DNA: GCGTGTTGAGCTGTATTAGGGTGTCAGGTTTTGGTCAGGCGTTCAAACGTAGAGGAATGGACACTTCGGCGATACAATCCTGATCCATGAGACGG
B2: no binding (VEGF165 [2]).

B3: T-00249 (ssDNA)
DNA: GCGTGTTGAGCTGTATTAGGGTGTCAGGAAGGATTCGGGGGTGGATTTAGGGGGGGATCGTTGTGGAGGCGATACAATCCTGATCCATGAGACGG
B3: no binding [3].

B4: T-00204 (ssDNA)
DNA: CTCCATTGACTCGGCTTAAACTCCCAGGAGGTGGTGGGGGTGGGATTAGGGTTGGGATTGGAGGGGTGTCGGTCATATTGGGGTGCTCCTTGGCT
B4: no binding [4].
